Assays:
[1] = molecular target: T1, N^α -AT (AAA1 N^α -acetyltransferase) (Saccharomyces cerevisiae, UniProt P07347+P12945); experiment: N^α-acetylation of synthetic peptides by AAA1 N^α-acetyltransferase ([3H]acetyl coenzyme A incorporation); format: biochemical; design: concentration or dose not given beside the values
T1 construct: isolates N^α -acetyltransferase by treating yeast cells with lyticase; endogenous in cells; host or cells: Saccharomyces cerevisiae cells (native enzyme)
T1 sequence (P12945 2-854): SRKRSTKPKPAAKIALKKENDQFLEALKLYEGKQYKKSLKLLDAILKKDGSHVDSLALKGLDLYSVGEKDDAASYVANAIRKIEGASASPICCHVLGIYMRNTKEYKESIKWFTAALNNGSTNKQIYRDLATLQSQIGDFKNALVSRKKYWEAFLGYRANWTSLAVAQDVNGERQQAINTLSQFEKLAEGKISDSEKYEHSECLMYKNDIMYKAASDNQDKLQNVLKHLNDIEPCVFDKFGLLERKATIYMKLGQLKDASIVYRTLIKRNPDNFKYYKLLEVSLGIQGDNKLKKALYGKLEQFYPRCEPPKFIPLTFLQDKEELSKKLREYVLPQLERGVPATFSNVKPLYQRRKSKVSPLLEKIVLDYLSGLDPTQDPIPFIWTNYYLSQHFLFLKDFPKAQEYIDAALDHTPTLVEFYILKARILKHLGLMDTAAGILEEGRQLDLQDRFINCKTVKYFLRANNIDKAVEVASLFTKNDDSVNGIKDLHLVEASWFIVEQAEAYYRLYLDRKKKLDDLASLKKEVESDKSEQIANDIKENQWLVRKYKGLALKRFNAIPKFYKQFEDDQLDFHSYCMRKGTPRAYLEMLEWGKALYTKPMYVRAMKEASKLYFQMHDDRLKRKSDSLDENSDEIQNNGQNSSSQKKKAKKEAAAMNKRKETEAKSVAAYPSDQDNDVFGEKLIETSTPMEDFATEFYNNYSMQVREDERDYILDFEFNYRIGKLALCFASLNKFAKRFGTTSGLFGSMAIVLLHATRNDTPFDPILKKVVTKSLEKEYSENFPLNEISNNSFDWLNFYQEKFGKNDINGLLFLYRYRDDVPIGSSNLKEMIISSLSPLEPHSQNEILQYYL
T1 sequence (P07347 1-238): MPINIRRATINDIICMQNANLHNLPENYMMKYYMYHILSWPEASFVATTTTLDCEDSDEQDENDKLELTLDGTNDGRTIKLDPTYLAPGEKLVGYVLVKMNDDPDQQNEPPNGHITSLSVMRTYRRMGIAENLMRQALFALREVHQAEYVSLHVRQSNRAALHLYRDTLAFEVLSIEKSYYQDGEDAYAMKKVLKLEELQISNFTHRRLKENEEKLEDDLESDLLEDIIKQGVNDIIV
Experimental: (§1) Aliquots of the lysate were added to 1.5 ml Eppendorf tubes containing a reaction mixture of 50 mM HEPES, pH 7.4, 150 mM KCl, 1 mM DTT, 25 μM[^3 H]acetyl coenzyme A (0.5 μCi) and 50 μM ACTH (1-24) with an adjusted final volume of 100 μl. The assay mixture was incubated at 30 C for 30 min. The reaction was stopped by adding 0.5 M acetic acid and chilled in an ice bath. […] The radioactivity in the control represented acetylation of endogenous compounds is subtracted from each sample determination. One unit of activity is defined as 1 pmol of acetyl residues incorporated into ACTH (1-24) under standard assay conditions.
(§2) This second N^α -acetyltransferase is a methionine N^α -acetyltransferase activity, and is designated as "M-N^α -AT." This second N^α -acetyltransferase is the subject of U.S. patent application of John A. Smith and Fang-Jen S. Lee, filed Oct. […] In order to compare the relative specificity and activity of the AAA1 N^α -acetyltransferase ("N^α -AT") of the present invention with the methionine N^α -acetyltransferase activity (M-N^α -AT) of U.S. patent application of John A. Smith and Fang-Jen S. Lee, filed Oct. […] These peptides were assessed for their ability to serve as substrates for the two enzymes. In Table 2, the effect of the amino terminal amino acid on activity is investigated; in Table 3, the effect of the penultimate amino terminal amino acid on activity is investigated.

[2] = molecular target: T2, M-N^α -AT (methionine N^α -acetyltransferase) (Saccharomyces cerevisiae, UniProt Q06504); experiment: N^α-acetylation of synthetic peptides by methionine N^α-acetyltransferase; format: biochemical; design: concentration or dose not given beside the values
T2 construct: endogenous in cells; host or cells: Saccharomyces cerevisiae aaa1 (AAA1-null) mutant
T2 sequence (Q06504 1-195): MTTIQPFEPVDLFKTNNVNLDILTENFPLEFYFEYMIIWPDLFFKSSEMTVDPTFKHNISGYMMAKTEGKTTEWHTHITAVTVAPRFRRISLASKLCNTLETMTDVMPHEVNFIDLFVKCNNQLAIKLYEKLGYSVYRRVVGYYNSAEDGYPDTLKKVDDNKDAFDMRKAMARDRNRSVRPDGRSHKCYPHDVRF
T2 sequence (Q12387 2-796 partner limits assumed): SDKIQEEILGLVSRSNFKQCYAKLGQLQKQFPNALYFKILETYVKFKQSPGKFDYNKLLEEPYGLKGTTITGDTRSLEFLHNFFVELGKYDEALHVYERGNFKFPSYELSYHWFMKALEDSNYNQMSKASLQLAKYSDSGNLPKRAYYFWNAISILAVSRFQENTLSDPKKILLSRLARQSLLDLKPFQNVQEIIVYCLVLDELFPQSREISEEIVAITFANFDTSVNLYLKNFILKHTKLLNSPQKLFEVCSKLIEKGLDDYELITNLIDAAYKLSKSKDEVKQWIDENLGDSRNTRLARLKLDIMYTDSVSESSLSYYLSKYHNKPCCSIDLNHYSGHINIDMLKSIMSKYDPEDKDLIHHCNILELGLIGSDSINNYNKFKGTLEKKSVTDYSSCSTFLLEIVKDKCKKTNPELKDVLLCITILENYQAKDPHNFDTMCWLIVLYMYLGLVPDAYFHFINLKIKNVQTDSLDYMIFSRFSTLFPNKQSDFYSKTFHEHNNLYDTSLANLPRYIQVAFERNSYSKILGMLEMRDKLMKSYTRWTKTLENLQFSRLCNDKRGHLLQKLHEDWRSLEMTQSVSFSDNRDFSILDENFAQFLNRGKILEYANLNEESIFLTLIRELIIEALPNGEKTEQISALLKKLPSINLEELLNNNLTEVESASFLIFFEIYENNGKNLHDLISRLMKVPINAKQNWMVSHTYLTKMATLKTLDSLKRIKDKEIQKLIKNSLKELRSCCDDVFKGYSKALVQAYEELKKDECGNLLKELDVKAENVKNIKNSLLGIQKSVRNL
Experimental: as §1, §2

[3] = molecular target: T1, N^α -AT (AAA1 N^α -acetyltransferase); conditions: purified enzyme; Lee et al., J. Biol. Chem. 263:14948-14955 (1988); cited from earlier work
[4] = Table 2: relative activity for N^α-acetylation of synthetic peptide substrate, influence of the amino terminal residue
[5] = Table 3: relative activity for N^α-acetylation of synthetic peptide substrate, influence of the penultimate amino terminal residue

Substance | Activity (%) (mean activity ± S.D.) N^α -AT [1, 4] | Activity (%) (mean activity ± S.D.) N^α -AT [1, 5] | Activity (%) (mean activity ± S.D.) M-N^α -AT [2, 4] | Activity (%) (mean activity ± S.D.) M-N^α -AT [2, 5] | transfer of an acetyl group to synthetic peptide substrates by purified yeast N^α-acetyltransferase [3]
SIPETQKGVIFYESHGKLEYKDIP (SIPETQKGVIFYESHGKLEYKDIP) [ALCOHOL DEHYDROGENASE I (1-24) (Yeast), synthetic peptide substrate, yeast alcohol dehydrogenase I residues 1-24, reference compound] | 102 ± 5 | 102 ± 5 | 0 | 0 | effectively transfer an acetyl group
SQPETQKGVIFYESHGKLEYKDIP (SQPETQKGVIFYESHGKLEYKDIP) | – | 134 ± 7 | – | 0 | –
SGPETQKGVIFYESHGKLEYKDIP (SGPETQKGVIFYESHGKLEYKDIP) | – | 84 ± 5 | – | 0 | –
MIPETQKGVIFYESHGKLEYKDIP (MIPETQKGVIFYESHGKLEYKDIP) | 15 ± 2 | – | 0 | – | –
SYSMEHFRWGKPVGKKRRPVKVYP [ACTH (Human), reference compound] | 100 ± 5 | 100 ± 5 | 0 | 0 | effectively transfer an acetyl group
KIPETQKGVIFYESHGKLEYKDIP (KIPETQKGVIFYESHGKLEYKDIP) | 0 | – | 0 | – | –
SNPETQKGVIFYESHGKLEYKDIP (SNPETQKGVIFYESHGKLEYKDIP) | – | 116 ± 5 | – | 0 | –
SFPETQKGVIFYESHGKLEYKDIP (SFPETQKGVIFYESHGKLEYKDIP) | – | 118 ± 6 | – | 0 | –
SHPETQKGVIFYESHGKLEYKDIP (SHPETQKGVIFYESHGKLEYKDIP) | – | 125 ± 6 | – | 0 | –
TIPETQKGVIFYESHGKLEYKDIP (TIPETQKGVIFYESHGKLEYKDIP) | 103 ± 5 | – | 0 | – | –
SSPETQKGVIFYESHGKLEYKDIP (SSPETQKGVIFYESHGKLEYKDIP) | – | 140 ± 6 | – | 0 | –
SVPETQKGVIFYESHGKLEYKDIP (SVPETQKGVIFYESHGKLEYKDIP) | – | 123 ± 7 | – | 0 | –
human superoxide dismutase (1-24): synthetic peptide substrate, residues 1-24 of human superoxide dismutase (ATKAVCVLKGDGPVQGIINFEQKE; UniProt P00441 2-25, looked up, fragment) | – | – | – | – | effectively transfer an acetyl group

Source: US5210024A, “Isolation of strains of Saccharomyces cerevisiae having altered α-acetyltransferase activity” (priority 1991, dated 1993)
